Biological target: TYROBP transmembrane domain (TMD), bacterial two-hybrid fusion (UniProt O43914)
Assay: two-hybrid

Chain of UniProt O43914 (O43914 22-113): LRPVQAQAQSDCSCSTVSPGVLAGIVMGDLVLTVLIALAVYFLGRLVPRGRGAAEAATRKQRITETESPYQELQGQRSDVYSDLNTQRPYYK

For “TREM2 transmembrane domain (TMD), bacterial two-hybrid fusion (from UniProt Q9NZC2 19-230) (domain or fragment)”, the Miller Units (β-galactosidase, B2H) was 903 Miller Units.

For PLLVALLLGPKLLLVVGVSAIYIC (domain or fragment) [SIRPβ1 isoform 201 transmembrane domain (TMD), bacterial two-hybrid fusion], the Miller Units (β-galactosidase, B2H) was 111 Miller Units.

PLLIAFLLGPKVLLVVGVSVIYVY (domain or fragment) [SIRPβ1 isoform 202 transmembrane domain (TMD), bacterial two-hybrid fusion] gave a Miller Units (β-galactosidase, B2H) of 94 Miller Units.

Source: paper doi:10.1101/2022.11.19.22282342
